B1: EHEE_rd2_1257 (parent)
chain: EEERTFTNEEEARKAKKEAEKRGLRVTVTKDGTTWRVRIG

62 variants from the MegaScale stability set (Tsuboyama et al. 2023) can be followed below.

In the series the parent is B1. The experiment in a line: folding stability dG (cDNA display proteolysis); higher = more stable. The conditions noted are these: PBS, room temperature.
Turning to EEERTFNNEEEARKAKKEAEKRGLRVTVTKDGTTWRVRIG, the “folding stability dG” value worked out at 1.98 kcal/mol. Take EEERTFRNEEEARKAKKEAEKRGLRVTVTKDGTTWRVRIG: the “folding stability dG” value turned out to be 1.58 kcal/mol. With EEERTFFNEEEARKAKKEAEKRGLRVTVTKDGTTWRVRIG the figure was 2 kcal/mol; with EEERTFTNEEEAVKAKKEAEKRGLRVTVTKDGTTWRVRIG, 2.26 kcal/mol; with EEERTFTNEEEAGKAKKEAEKRGLRVTVTKDGTTWRVRIG, 1.37 kcal/mol. EEERTFTNEEEAKKAKKEAEKRGLRVTVTKDGTTWRVRIG: the “folding stability dG” value is 2.05 kcal/mol.

Consider EEERTFTNEEEAHKAKKEAEKRGLRVTVTKDGTTWRVRIG, for which the “folding stability dG” value came to 2.19 kcal/mol. With EEERTFTNEEEAYKAKKEAEKRGLRVTVTKDGTTWRVRIG, the “folding stability dG” value came to 2.92 kcal/mol. EEERTFTNEEEARKAHKEAEKRGLRVTVTKDGTTWRVRIG: the “folding stability dG” value was 1.53 kcal/mol.

Regarding EEERTFTNEEEARKAVKEAEKRGLRVTVTKDGTTWRVRIG, the “folding stability dG” value was found to be 3 kcal/mol. Take EEERTFTNEEEARKAKKEAEDRGLRVTVTKDGTTWRVRIG: the “folding stability dG” value amounted to 2.25 kcal/mol. Under EEERTFTNEEEARKAKKEAEERGLRVTVTKDGTTWRVRIG stands 2.25 kcal/mol.

Take EEERTFTNEEEARKAKKEAEARGLRVTVTKDGTTWRVRIG: the “folding stability dG” value turned out to be 2.53 kcal/mol. For EEERTFTNEEEARKAKKEAERRGLRVTVTKDGTTWRVRIG, the “folding stability dG” value was 2.19 kcal/mol.

For the variant EEERTFTNEEEARKAKKEAELRGLRVTVTKDGTTWRVRIG, the “folding stability dG” value is 2.31 kcal/mol. Turning to EEERTFTNEEEARKAKKEAEKRGLRGTVTKDGTTWRVRIG, the “folding stability dG” value is 0.489 kcal/mol.

As to EEERTFTNEEEARKAKKEAEKRGLRITVTKDGTTWRVRIG, the “folding stability dG” value worked out at 0.589 kcal/mol.

EESRTFTNEEEARKAKKEAEKRGLRVTVTKDGTTWRVRIG: the “folding stability dG” value worked out at 1.66 kcal/mol. For the variant EEIRTFTNEEEARKAKKEAEKRGLRVTVTKDGTTWRVRIG, the “folding stability dG” value stood at 2.48 kcal/mol. With EEGRTFTNEEEARKAKKEAEKRGLRVTVTKDGTTWRVRIG the figure was 1.28 kcal/mol; with EEPRTFTNEEEARKAKKEAEKRGLRVTVTKDGTTWRVRIG, 0.936 kcal/mol; with EEYRTFTNEEEARKAKKEAEKRGLRVTVTKDGTTWRVRIG, 2.08 kcal/mol.

For the variant EEERTFTNYEEARKAKKEAEKRGLRVTVTKDGTTWRVRIG, the “folding stability dG” value stood at 2.73 kcal/mol.

Regarding EEERTFTNPEEARKAKKEAEKRGLRVTVTKDGTTWRVRIG, the “folding stability dG” value was 1.47 kcal/mol. With EEERTFTNSEEARKAKKEAEKRGLRVTVTKDGTTWRVRIG the figure was 1.35 kcal/mol; with EEERTFTNNEEARKAKKEAEKRGLRVTVTKDGTTWRVRIG, 0.702 kcal/mol; with EEERTFTSEEEARKAKKEAEKRGLRVTVTKDGTTWRVRIG, 2.31 kcal/mol. On to EEERTFTNEEEARKAKKRAEKRGLRVTVTKDGTTWRVRIG, for which the “folding stability dG” value is 1.22 kcal/mol. EEERTFTNEEEARKAKKSAEKRGLRVTVTKDGTTWRVRIG: the “folding stability dG” value stood at 1.4 kcal/mol. On to EEERTFTNEEEARKAKKVAEKRGLRVTVTKDGTTWRVRIG, for which the “folding stability dG” value amounted to 1.3 kcal/mol.

On to EEERTFTNEEEARKAKKWAEKRGLRVTVTKDGTTWRVRIG, for which the “folding stability dG” value came out at 2.24 kcal/mol. For EEERTFTNEEEARKAKKEWEKRGLRVTVTKDGTTWRVRIG, the “folding stability dG” value was 2.02 kcal/mol. Consider EEERTFTNEEEARKAKKEHEKRGLRVTVTKDGTTWRVRIG, for which the “folding stability dG” value worked out at 1.06 kcal/mol. Consider EEERTFTNEEEARKAKKEFEKRGLRVTVTKDGTTWRVRIG, for which the “folding stability dG” value came to 2.11 kcal/mol. With EEERTFTNEEEARKAKKECEKRGLRVTVTKDGTTWRVRIG the figure was 2.03 kcal/mol.

As to EEERTFTNEEEARKAKKESEKRGLRVTVTKDGTTWRVRIG, the “folding stability dG” value turned out to be 0.779 kcal/mol. With EEERTFTNEEEARLAKKEAEKRGLRVTVTKDGTTWRVRIG, the “folding stability dG” value worked out at 2.1 kcal/mol. EEERTFTNEEEARGAKKEAEKRGLRVTVTKDGTTWRVRIG: the “folding stability dG” value is 1.49 kcal/mol. On to EEERTFTNEEEARKAKKEAEKRGLRVTVTKDETTWRVRIG, for which the “folding stability dG” value was found to be 1.26 kcal/mol.

On to EEERTFTNEEEARKAKKEAEKRGLRVTVTKDHTTWRVRIG, for which the “folding stability dG” value came to 0.713 kcal/mol.

Consider EEERTFTNEEEARKAKKEAEKRGLRVTVTKDITTWRVRIG, for which the “folding stability dG” value is -0.071 kcal/mol.

On to EEERTFTNEEEARKAKKEAEKRGLRVTVTKDLTTWRVRIG, for which the “folding stability dG” value came to 0.595 kcal/mol. In the case of EEERTFTNEETARKAKKEAEKRGLRVTVTKDGTTWRVRIG, the “folding stability dG” value turned out to be 0.995 kcal/mol. Consider EEERTFTNEEEARKYKKEAEKRGLRVTVTKDGTTWRVRIG, for which the “folding stability dG” value turned out to be 3.31 kcal/mol. Turning to EEERTFTNEEEARKRKKEAEKRGLRVTVTKDGTTWRVRIG, the “folding stability dG” value amounted to 0.547 kcal/mol. Take EEERTFTNEEEARKKKKEAEKRGLRVTVTKDGTTWRVRIG: the “folding stability dG” value worked out at 0.42 kcal/mol. As for EEERTFTNEEEARKAKKEAEKRGLRVTVTKDGTTWRVRIM, the “folding stability dG” value amounted to 2.55 kcal/mol.

As for EEERTFTNEEEARKAKKEAEKRGLRVTVTKDGTTWRVRIS, the “folding stability dG” value stood at 2.6 kcal/mol. For EEERTFTNEEEARKAKKEAEKRGLRVTVTKDGTTWRVRIY, the “folding stability dG” value turned out to be 3.08 kcal/mol.

For EEERTFTNEEEARKAKKEAEKRGLRVTVTKDGTTWRVRIT, the “folding stability dG” value was determined as 2.51 kcal/mol.

As for EEERTFTNEEEARKAKKEAEKRGLRVTVTKDGTTWRVRIR, the “folding stability dG” value turned out to be 2.08 kcal/mol.

As for EEEDTFTNEEEARKAKKEAEKRGLRVTVTKDGTTWRVRIG, the “folding stability dG” value came to 0.771 kcal/mol. With EEESTFTNEEEARKAKKEAEKRGLRVTVTKDGTTWRVRIG the figure was 1.46 kcal/mol; with EEEMTFTNEEEARKAKKEAEKRGLRVTVTKDGTTWRVRIG, 2.53 kcal/mol. For the variant EEEFTFTNEEEARKAKKEAEKRGLRVTVTKDGTTWRVRIG, the “folding stability dG” value came to 2.97 kcal/mol. With EEERTFTNEEEARKAKKEAEKRGLRVTVTKDGTTWRVRTG the figure was 1.27 kcal/mol; with EEERTFTNEEEARKAKKEAEKRGLRVTVTKDGTTWRVRMG, 1.37 kcal/mol; with EFERTFTNEEEARKAKKEAEKRGLRVTVTKDGTTWRVRIG, 2.6 kcal/mol. Under EDERTFTNEEEARKAKKEAEKRGLRVTVTKDGTTWRVRIG stands 1.75 kcal/mol. Consider EQERTFTNEEEARKAKKEAEKRGLRVTVTKDGTTWRVRIG, for which the “folding stability dG” value was 1.99 kcal/mol. For the variant EEERTFTNEEEARKAKKEAEKRGLRVTVSKDGTTWRVRIG, the “folding stability dG” value is 1.62 kcal/mol. EEERTFTNEEEARKAKKEAEKRGLRVTVGKDGTTWRVRIG: the “folding stability dG” value was 0.178 kcal/mol.
